{
  "source": "patent US20200384079A1",
  "about": "“Compositions of Fibroblast Growth Factor LIgands and Methods of Treating Patients Undergoing Ischemia-Reperfusion Therapy” (University of Cincinnati, priority 2017, published 2020)",
  "molecules": {"B1": {"name": "FGF1^ΔHBS: FGF1 mutant carrying the K127D/K128Q/K133V triple mutation in its HS-binding region; reduced heparin-binding affinity (protein)", "chain": "MAEGEITTFTALTEKFNLPPGNYKKPKLLYCSNGGHFLRILPDGTVDGTRDRSDQHIQLQLSAESVGEVYIKSTETGQYLAMDTDGLLYGSQTPNEECLFLERLEENHYNTYISKKHAEKNWFVGLDQNGSCVRGPRTHYGQKAILFLPLPVSSD"}},
  "key": {"[1]": {"system": "in vivo rat model of myocardial infarction"}, "[2]": {"test": "Blood clotting time (tail nick)", "format": "in vivo, rat", "details": "for Clotting time: 15 mins post treatment, single agent; for blood clotting time post-treatment (in words): baseline vs 15 minutes after drug treatment; for effect on anticoagulant activity of heparin (in words): co-administered with unfractionated heparin", "procedure": "In sets of experiments, blood clotting time was detected at baseline and 15 minutes after drug treatment. In brief, a nick 1-2 mm depth was made at 5 cm and 3 cm of the proximal tail for baseline and post-drug blood clotting time, respectively; the tail nick was blotted with 4×4 gauze every 15 seconds until bleeding totally stopped, and blood clotting time was recorded from the onset of bleeding until it stopped.\nHeparan sulfate proteoglycans or heparin regulates the bioavailability of FGFs. In order to develop a “cardioprotective” FGF as a therapeutic against ischemic heart disease, it was necessary to elucidate the efficacy of these cardiac FGFs in the presence of heparin treatment. Therefore, native rhFGFs (FGF 1, 2, 4, or 5) or vehicle are infused intravenously (at dose indicated above) in conjunction with unfractionated (12 units/kg/hr, i.v.) or low molecular weight heparin (enoxaparin 1 mg·kg, s.c.) during the first 15 minutes of reperfusion (FIG. 12A), and post-ischemic recovery of cardiac function and the degree of myocardial infarction is assessed. […] Unfractionated or low molecular weight heparin is administered alone during early reperfusion to elucidate the cardioprotective effects of heparins against IR injury. Whether FGF administration alters heparin activity is evaluated. To assess this potential interaction, activated clotting time (ACT) is assessed in vehicle-treated or FGF-treated groups in the absence or presence of heparin co-administration. Baseline and 15 minute post-drug treatment ACT is determined. It has been established that a heparin response occurs within 1 minute after an intravenous dose in humans and that no more time is required to achieve a predicted ACT."}, "FGFR1": {"system": "FGFR1", "test": "FGFR1 activation (phosphorylation) in left ventricle, immunoblot", "parameters": "species or system rat", "details": "in vivo, after 15 minutes of treatment", "procedure": "One-half of each snap-frozen heart was powdered and homogenized in protein extraction buffer as previously described by our laboratory. For FGFR1, 150 μg of total protein were loaded onto a 8% SDS-PAGE gel, for ERK1/2 activation, 20 μg of whole cell protein homogenate was loaded onto a 15% SDS-PAGE gel, and for PKCα and PKCδ, […] of whole cell protein homogenate was loaded onto a 10% SDS-PAGE gel and then transferred to nitrocellulose membrane. 0.1% Ponceau S in 5% acetic acid was used to examine the transfer efficiency and loading equality as described previously 43. Membranes were blocked with 5% dry milk and then incubated with primary antibody against phospho-FGFR1 (Y-654, 1:500, Cell Signaling), phospho-ERK1/2 (1:1000, Cell Signaling) or phospho-PKCα (1:500, Santa Cruz) or phospho-PKCδ (1:500, Santa Cruz) followed by incubation with HRP-conjugated secondary goat anti-rabbit antibody (1:3000, Santa Cruz Biotechnology). […]\nConstruction of his-tagged native and heparin-binding modified rhFGFs as well as their expression and purification is performed as previously described using his-tagged expression vectors and nickel-nitrilotriacetic acid resin columns. […] His-tagged FGFs are detected in solid organs by ELISA (FIG. 14) both for FGF and histidine (data not shown), and immunoprecipitation (IP) followed by immunoblot and in plasma by ELISA as described previously. […]"}, "ERK1/2": {"system": "ERK1/2", "test": "ERK1/2 activation (phosphorylation) in left ventricle, immunoblot", "format": "in vivo, rat", "details": "immediately post-treatment", "procedure": "Hearts from rats treated with saline, native FGF1 or FGF1^ΔHBS in the presence or absence of heparin were collected immediately after administration and at 120 minutes post-treatment for evaluation of downstream signaling. One-half of each snap-frozen heart was powdered and homogenized in protein extraction buffer as previously described by our laboratory. For FGFR1, 150 μg of total protein were loaded onto a 8% SDS-PAGE gel, for ERK1/2 activation, 20 μg of whole cell protein homogenate was loaded onto a 15% SDS-PAGE gel, and for PKCα and PKCδ, […] of whole cell protein homogenate was loaded onto a 10% SDS-PAGE gel and then transferred to nitrocellulose membrane. 0.1% Ponceau S in 5% acetic acid was used to examine the transfer efficiency and loading equality as described previously 43. Membranes were blocked with 5% dry milk and then incubated with primary antibody against phospho-FGFR1 (Y-654, 1:500, Cell Signaling), phospho-ERK1/2 (1:1000, Cell Signaling) or phospho-PKCα (1:500, Santa Cruz) or phospho-PKCδ (1:500, Santa Cruz) followed by incubation with HRP-conjugated secondary goat anti-rabbit antibody (1:3000, Santa Cruz Biotechnology). Membranes were stripped and reprobed with antibodies against total FGFR1 (1:500, Cell Signaling), total ERK (1:1000, BD Transduction Labs) or total PKCα (1:500, Santa Cruz) or PKCδ (1:500, Santa Cruz). Bound antibodies were visualized by ECL system. Activation is indicated as a ratio of phosphorylated protein/total protein. β-actin (1:1000, Cell Signaling) was also used as a loading control.\nConstruction of his-tagged native and heparin-binding modified rhFGFs as well as their expression and purification is performed as previously described using his-tagged expression vectors and nickel-nitrilotriacetic acid resin columns. […] His-tagged FGFs are detected in solid organs by ELISA (FIG. 14) both for FGF and histidine (data not shown), and immunoprecipitation (IP) followed by immunoblot and in plasma by ELISA as described previously. His-tags are widely used because they are small and rarely interfere with function, activity, or structure of target proteins. […] There is no observed difference in total ERK or FGFR1 expression between the treatment groups."}, "[3]": {"details": "rat; for exogenous FGF1 level targeted to the heart: 10 μg/kg i.v.; for tissue and plasma FGF distribution (in words): i.v."}, "[4]": {"details": "rat, FGF given at reperfusion with heparin"}, "[5]": {"details": "rat, given at reperfusion, no heparin co-therapy"}},
  "note": "“Also recorded” adds a separate entry of the source. Where two headings read alike, the source gives them in different places.",
  "data": [
    {"molecule": "FGF1: native recombinant human fibroblast growth factor 1", "values": [
      {"measurement": "recovery of contractility (+dP/dt at 120 minutes post-reperfusion normalized to baseline)", "setting": "[1]; rat, FGF1 10 μg/kg i.v. at reperfusion, no heparin", "result": 69, "unit": "%"},
      {"measurement": "post-ischemic cardiac function (in words)", "setting": "[1]; [4]", "result": "reduced the post-ischemic improvement of cardiac function"},
      {"measurement": "post-ischemic cardiac function (in words)", "setting": "[1]; [5]", "result": "improved relaxation compared to saline treatment"},
      {"measurement": "Clotting time", "setting": "[2]", "result": "15 mins post rhFGF1 treatment: 144 +/− 21 sec (n = 7)"},
      {"measurement": "blood clotting time post-treatment (in words)", "setting": "[2]", "result": "no significant difference in blood clotting time"},
      {"measurement": "effect on anticoagulant activity of heparin (in words)", "setting": "[2]", "result": "does not alter the desired anticoagulant activity of heparin; also recorded: did not alter heparin's anticoagulant properties"},
      {"measurement": "FGFR1 activation (phosphorylation, Y-654) in left ventricle (in words)", "setting": "FGFR1", "result": "elevated"},
      {"measurement": "ERK1/2 activation (phosphorylation) in left ventricle (in words)", "setting": "ERK1/2; FGF with heparin", "result": "markedly reduced ERK1/2 activation stimulated by FGF1"},
      {"measurement": "ERK1/2 activation (phosphorylation) in left ventricle (in words)", "setting": "ERK1/2; no FGF+heparin co-treatment", "result": "significantly increased compared to saline or heparin only treatment"},
      {"measurement": "exogenous FGF1 level targeted to the heart", "setting": "[3]; no heparin", "result": "2282 ± 97", "unit": "µg/mL"},
      {"measurement": "tissue and plasma FGF distribution (in words)", "setting": "[3]; FGF with heparin co-administration", "result": "significantly decreased in kidney, spleen, heart, liver and plasma"},
      {"measurement": "tissue and plasma FGF distribution (in words)", "setting": "[3]; no FGF+heparin co-treatment", "result": "distributed to kidney, spleen, heart, liver, and plasma, while less went to lung and skeletal muscle"}
    ]},
    {"molecule": "B1", "values": [
      {"measurement": "heart rate compared to the saline group (in words)", "setting": "[1]; rat I/R study", "result": "no significant differences in heart rate"},
      {"measurement": "post-ischemic cardiac function (in words)", "setting": "[1]; [4]", "result": "improved post-ischemic cardiac function, even in the presence of heparin"},
      {"measurement": "post-ischemic cardiac function (in words)", "setting": "[1]; [5]", "result": "significantly improved compared to the native FGF1 cohorts; also recorded: significantly improved post-ischemic cardiac function compared to native FGF1; also recorded: greater improvement in cardiac function compared to FGF1"},
      {"measurement": "Clotting time", "setting": "[2]", "result": "15 mins post rhFGF^ΔHBS treatment: 169 +/− 10 sec (n = 10)"},
      {"measurement": "blood clotting time post-treatment (in words)", "setting": "[2]", "result": "no significant difference in blood clotting time"},
      {"measurement": "effect on anticoagulant activity of heparin (in words)", "setting": "[2]", "result": "did not alter heparin's anticoagulant properties"},
      {"measurement": "FGFR1 activation (phosphorylation, Y-654) in left ventricle (in words)", "setting": "FGFR1", "result": "elevated"},
      {"measurement": "ERK1/2 activation (phosphorylation) in left ventricle (in words)", "setting": "ERK1/2; no FGF+heparin co-treatment", "result": "significantly increased compared to saline or heparin only treatment; also recorded: significantly higher level of phosphorylated ERK1/2"},
      {"measurement": "exogenous FGF1 level targeted to the heart", "setting": "[3]; no heparin", "result": "3073 ± 101", "unit": "µg/mL"},
      {"measurement": "exogenous FGF1 level targeted to the heart", "setting": "[3]; with heparin administration", "result": "4336 ± 775", "unit": "µg/mL"},
      {"measurement": "tissue and plasma FGF distribution (in words)", "setting": "[3]; no FGF+heparin co-treatment", "result": "mainly went to the heart including atria, left ventricle, and right ventricle; also recorded: greater biodistribution of FGF1^ΔHBS to the left ventricle compared to native FGF1"}
    ]}
  ]
}
